From US20240368239A1, “Novel bispecific protein and use thereof” (SL METAGEN, priority 2020, published 2024)
Entries after “also recorded” stand apart in the source; their conditions may differ.

What was measured:
[1] = In vivo pharmacokinetics profile after subcutaneous administration (GLP-1-Fc ELISA and GLP-2-Fc ELISA); set-up: species or system male SD (Sprague Dawley) rats; conditions: GLP-1-Fc ELISA
Description: First, each protein was administered to 3 male SD (Sprague Dawley) rats per group at a dose of 1 mg/kg by subcutaneous (SC) route. Before injection and after 0.5, 1, 5, 10, 24, 48, 72, 120, and 168 hours after the injection, blood was collected and stored at room temperature for 30 minutes to aggregate. After centrifuging the aggregated blood at 3,000 rpm for 10 minutes, serum of each sample was collected and stored in a cryogenic freezer. Analyses were performed by an assay designed to specifically detect the GLP-1 site and Fc in the administered protein (GLP-1-Fc ELISA) and an assay designed to specifically detect the GLP-2 site and Fc in the administered protein (GLP-2-Fc ELISA). Specifically, a method of loading a biological sample on a plate coated with an antibody that binds to mouse-derived human immunoglobulin G4 (IgG4) to detect the target protein using a biotinylated anti-GLP-1 antibody (GLP-1-Fc ELISA), and a method of loading a biological sample on a plate coated with a monoclonal antibody that specifically reacts with GLP-2, to detect the target protein using a secondary antibody having HRP conjugated to mouse-derived human immunoglobulin G4 (IgG4) (GLP-2-Fc ELISA) were used. The obtained and prepared serum samples were loaded with appropriate dilutions to be analyzed at a position on a straight line of the standard curve.

Balb/c-nude mice = experiment: PET-MRI tissue distribution of Zr89-labelled proteins; type: in vivo; conditions: Zr89 label, SC
Description: Next, the present inventors performed an experiment in Balb/c-nude mice in order to observe the distribution in each tissue organ following the administration of a substance. Zr^89 was used as a radiotracer for tracking the distribution after administration of each substance. Each substance to be administered was labeled with Zr^89 as a reaction condition and a chelator selected through a preliminary test. The labeled Zr^89-protein was purified using a PD-10 column, and Zr^89 labeling efficiency and purity were confirmed using Radio TLC and SEC-HPLC. The labeling efficiency of the Zr^89-protein of 90% or more and the purity of 80% or more were determined to be appropriate, and the labeled protein was administered subcutaneously at 0.2 mCi/0.2 cc. Each administration substance was administered to three animals and static images for 20 minutes were obtained using PET-MRI at 1 hour, 6 hours, 24 hours, 48 hours, and 168 hours after injection. Through image analysis, the distribution of drugs as a function of time in the liver, small intestine, and large intestine was expressed as SUV (Standardized Uptake Value) and comparatively analyzed.

B6 normal mice [2] = experiment: Fluorescence spectrometry tissue distribution of Cy5.5-labelled substances; type: in vivo
Description: Next, the present inventors performed an experiment in B6 normal mice in order to observe the distribution in each tissue and organ according to the administration of a bispecific fusion protein according to an embodiment of the present invention. Cy5.5 was used as a fluorophore for tracking the distribution after administration of each substance. Buffer exchange was performed for each substance to be administered, MG12-1, MG12-4, and GLP-1Fc homodimer with boric acid buffer (pH 8.5), and with reference to the protocol of the Cy5.5 labeling kit (GE, #PA15605) were allowed to react with an appropriate amount of Cy5.5 overnight under refrigeration conditions. Unreacted Cy5.5 in the reaction-completed substance was removed through the PBS substitution process, and whether Cy5.5 was reacted well was confirmed through the final SDS-PAGE. Each administered substance was diluted with 10% DMSO/PBS to have the same fluorescence intensity using an ELISA plate reader capable of measuring fluorescence intensity before being administered.

B6 normal mice [3] = experiment: MG12 vs. GLP-1 and GLP-2 combo: body weight and small intestine changes; type: in vivo; conditions: 12 days SC, normalized to cumulative feed intake
Description: In particular, in order to observe changes in body weight and the small intestine following the substance administration, an experiment was conducted in B6 normal mice. […] After starting drug administration twice a week during the test period, feed intake was measured and expressed as cumulative feed intake, and pre-autopsy body weight was measured to calculate the body weight vs. feed intake. After the autopsy, the weight of the small intestine, and mucosal depth and villus height of the duodenum and the jejunum were measured. More specifically, after the autopsy, the entire gastrointestinal tract of the mouse was separated, the mesentery and the pancreas were excised, and the area where the ileum and the cecum meet was cut to separate the small intestine and the large intestine.

B6 normal mice [4] = experiment: Small intestine weight and body weight (GLP-1-Fc homodimer, GLP-2-Fc homodimer, MG12-1, MG12-4); type: in vivo; conditions: SC twice a week, 4 doses; homodimers 10 nmol/kg, MG12 20 nmol/kg
Description: In addition, the present inventors conducted the same experiment as above while only varying the administered substance, in order to confirm whether the bispecific fusion proteins (MG12-1 and MG12-4) designed in a form other than MG12-5 also increase the small intestine weight and energy absorption rate of experimental animals. Specifically, PBS, 10 nmol/kg GLP-1-Fc homodimer, 10 nmol/kg GLP-2-Fc homodimer, 20 nmol/kg MG12-1, and 20 nmol/kg MG12-4 were subcutaneously administered. The drug was administered twice a week for a total of 4 times for 2 weeks. After 4 doses, the body weight was measured before autopsy, and the small intestine was excised after the autopsy and weighed. After the autopsy, the entire gastrointestinal tract of the mouse was separated, the mesentery and the pancreas were excised, and the area where the ileum and the cecum meet was cut to separate the small intestine and the large intestine. The separated small intestine was perfused and washed with 10% neutral formalin to remove the contents, and was weighed after removing the neutral formalin with an absorbent towel.

[5] = 24 hours after administration, Cy5.5 label

B1: MG12-4: Knob/hole Fc heterodimer: GLP-1/Exendin 4 hybrid (SEQ 5), glycan linker, first fusion protein SEQ 27; GLP-2 (SEQ 17), second fusion protein SEQ 34 (protein)
chain 1: HGEGTFTSDVSSYLEGQAAKEFIAWLVKGGPSSGAPPPSGGGGGSGGGGSGGGGSAKNTTAPATTRNTTRGGEEKKKEKEKEEQEERTHTCPPCPSHTQPLGVFLFPPKPKDQLMISRTPEVTCVVVDVSQEDPEVQFNWYVDGVEVHNAKTKPREEQFNSTYRVVSVLTVLHQDWLNGKEYKCKVSNKGLPSSIEKTISKAKGQPREPQVYTLPPCQEEMTKNQVSLWCLVKGFYPSDIAVEWESNGQPENNYKTTPPVLDSDGSFFLYSRLTVDKSRWQEGNVFSCSVLHEALHNHYTQKSLSLSLGK
chain 2: HGDGSFSDEMNTILDNLAARDFINWLIQTKITDGGGGSGGGGSGGGGSEKEKEEQEERTHTCPPCPSHTQPLGVFLFPPKPKDQLMISRTPEVTCVVVDVSQEDPEVQFNWYVDGVEVHNAKTKPREEQFNSTYRVVSVLTVLHQDWLNGKEYKCKVSNKGLPSSIEKTISKAKGQPREPQVCTLPPSQEEMTKNQVSLSCAVKGFYPSDIAVEWESNGQPENNYKTTPPVLDSDGSFFLVSRLTVDKSRWQEGNVFSCSVLHEALHNHYTQKSLSLSLGK
terminal half-life, rank among MG12-1, 3, 4 and 5 [1]: shortest half-life | distribution to the liver (SUV) (Balb/c-nude mice): reduced or showed no difference compared to Fc | distribution to the small intestine and large intestine (SUV) (Balb/c-nude mice): significantly high compared to that of GLP-1-Fc homodimer and GLP-2-Fc homodimer | Average fluorescence intensity, Brain (B6 normal mice [2]; [5]): 297 | Average fluorescence intensity, Large intestine (B6 normal mice [2]; [5]): 2343 | Average fluorescence intensity, Small intestine (B6 normal mice [2]; [5]): 4302 | distribution in the small intestine and the large intestine (B6 normal mice [2]; compared to GLP-1-Fc homodimer): larger | body weight increase vs. feed intake (B6 normal mice [3]): statistically significant body weight increase compared to the co-administered group | small intestine weight (B6 normal mice [4]): greater increase in small intestine weight than the GLP-2-Fc homodimer administered group; also recorded: superior effect of increasing small intestine weight | weight change before autopsy (body weight) (B6 normal mice [4]): numerical increase in body weight
